We go through one protein from US20020049303.

For series [1], the target named is recombinant pro-memapsin 2 (pro-M2pd).
Series [2] concerns the target T1, synthetic peptide NCH-gamma VGSGVLLSRK
T1 chain: VGSGVLLSRK

Series [3] addresses T2, synthetic peptide PS1-gamma LVNMAEGD
T2 chain: LVNMAEGD

In series [4] the target is T3, synthetic peptide from the APP beta-secretase site SEVKM/DAEFR.
T3 chain: SEVKMDAEFR

Series [5] addresses T4, peptide from the processing site of presenilin 1 SVNM/AEGD.
T4 chain: SVNMAEGD

The target of series [6] is T5, synthetic peptide from the APP beta-secretase site with the Swedish mutation SEVNL/DAEFR.
T5 chain: SEVNLDAEFR

In series [7] the target is oxidized bovine insulin B chain, P01317.
Sequence of oxidized bovine insulin B chain, P01317 (P01317 25-54): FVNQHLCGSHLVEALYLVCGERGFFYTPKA

Sequence of recombinant pro-memapsin 2 (pro-M2pd) (chain, as listed by the source): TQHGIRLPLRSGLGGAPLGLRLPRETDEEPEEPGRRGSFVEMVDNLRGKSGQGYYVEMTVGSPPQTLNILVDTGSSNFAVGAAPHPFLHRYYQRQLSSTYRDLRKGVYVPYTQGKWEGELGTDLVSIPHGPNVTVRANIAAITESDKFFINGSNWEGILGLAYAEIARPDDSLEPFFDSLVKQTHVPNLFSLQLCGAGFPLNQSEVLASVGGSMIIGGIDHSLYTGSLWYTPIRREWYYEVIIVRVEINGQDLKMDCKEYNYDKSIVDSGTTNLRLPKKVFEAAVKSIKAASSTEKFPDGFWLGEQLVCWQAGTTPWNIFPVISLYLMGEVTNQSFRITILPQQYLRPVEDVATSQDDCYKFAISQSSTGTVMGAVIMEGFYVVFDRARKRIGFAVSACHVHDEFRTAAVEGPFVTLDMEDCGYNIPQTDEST

B1: recombinant memapsin 2 (M2pd), auto-activated from pro-M2pd at pH 4.0 (protein)
chain: GIRLPLRSGLGGAPLGLRLPRETDEEPEEPGRRGSFVEMVDNLRGKSGQGYYVEMTVGSPPQTLNILVDTGSSNFAVGAAPHPFLHRYYQRQLSSTYRDLRKGVYVPYTQGKWEGELGTDLVSIPHGPNVTVRANIAAITESDKFFINGSNWEGILGLAYAEIARPDDSLEPFFDSLVKQTHVPNLFSLQLCGAGFPLNQSEVLASVGGSMIIGGIDHSLYTGSLWYTPIRREWYYEVIIVRVEINGQDLKMDCKEYNYDKSIVDSGTTNLRLPKKVFEAAVKSIKAASSTEKFPDGFWLGEQLVCWQAGTTPWNIFPVISLYLMGEVTNQSFRITILPQQYLRPVEDVATSQDDCYKFAISQSSTGTVMGAVIMEGFYVVFDRARKRIGFAVSA
With B1, the self-cleavage sites entry in series [1] is “M^2pd cleaved its pro peptide (2 sites) and the protease portion (2 sites) during a 16 h incubation after activation”. The entries for the “hydrolytic sites (HPLC and mass spectrometry)” value in series [2], in series [3] and in series [7] were “Three hydrolytic sites were identified from peptide NCH-gamma”, “A single cleavage site was observed in synthetic peptide PS1-gamma” and “Two hydrolytic sites were identified on oxidized insulin B-chain”, respectively. For the same protein, the kcat/Km result in series [4] is “kcat/Km, 39.9 s^-1M^-1”; in series [5], “kcat/Km, 43.8 s^-1M^-1”; in series [6] it was “kcat/Km, 2450 s^-1M^-1”. Also, the Km entry in series [5] was “Km, 15.2 mM”; in series [6] it was “Km, 1 mM”. Further, the kcat entry was “kcat, 0.67 s^-1” in series [5] and “tcat, 2.45 s^-1” in series [6]. In addition, the hydrolysis result in the series with Native proteins is given as “Native proteins were not cleaved by M2pd”. Moreover, the “fold increase of kcat/Km over native APP” value in series [6] is reported as 60-fold increase of kcat/Km over that for native APP.
